Results published in patent US20180087053, “ANTI-CANCER RNA APTAMERS” (CITY OF HOPE, published 2018).

Molecular target: mortalin (mitochondrial Hsp70, mHSP70) on PANC-1 cell surface (Homo sapiens, UniProt P38646 P38646:47-679)
Assay: flow; intact PANC-1 cells, 37 C, 15.6-500 nM aptamer; target identified as mortalin by pulldown/MS
Conditions: tags: endogenous, label: Cy3 (flow) or 3'-biotin (SPR, pulldown), multi-stem-loop (Mfold)
Procedure: FIG. 1A-1G: Showing the secondary structure and pancreatic cancer specific internalization (FIG. 1A). Cartoon of the secondary structures of P19 (SEQ ID NO:2) and P1 (SEQ ID NO:4) are shown; aptamers were selected from randomized N40 RNA libraries and were predicted using the Mfold program. (FIG. 1B) Cy3-labeled RNAs were tested for binding to PANC-1 and NC as control cells by flow cytometry. Data represent the average of three replicated. Initial RNA library pool is shown as Library, P1 and P19. Cy3 labeled P19 and P1 incubation in. (FIG. 1C) Cy3-labeled RNAs (100 nM) was tested for internalization by confocal in negative cells, PANC-1 and MIA PaCa-2: Cy3-labeled RNA. (FIG. 1D) Cy3-labeled RNAs (100 nM) was tested for the internalization in primary pancreatic epithelial cells; Cy3-labeled RNA. (FIG. 1E) The representative images by histopathological screen in pancreatic cancer and normal pancreas. The samples were stained with Cy3 labeled aptamer P1 and P19 respectively and examined at 100× magnification. White arrow indicate that P19 binding to cancer region. Cy3-labeled RNA. (FIG. 1F) A total of 72 patients of pancreatic adenocarcinoma had undergone. The Correlation coefficient between P1 and P19 is 0.891. […] Median fluorescence intensity (MFI) was measured and calculated using one site binding non-linear curve regression with a Graph Pad Prism.

Chain of mortalin (mitochondrial Hsp70, mHSP70) on PANC-1 cell surface (P38646 47-679, one chain of several): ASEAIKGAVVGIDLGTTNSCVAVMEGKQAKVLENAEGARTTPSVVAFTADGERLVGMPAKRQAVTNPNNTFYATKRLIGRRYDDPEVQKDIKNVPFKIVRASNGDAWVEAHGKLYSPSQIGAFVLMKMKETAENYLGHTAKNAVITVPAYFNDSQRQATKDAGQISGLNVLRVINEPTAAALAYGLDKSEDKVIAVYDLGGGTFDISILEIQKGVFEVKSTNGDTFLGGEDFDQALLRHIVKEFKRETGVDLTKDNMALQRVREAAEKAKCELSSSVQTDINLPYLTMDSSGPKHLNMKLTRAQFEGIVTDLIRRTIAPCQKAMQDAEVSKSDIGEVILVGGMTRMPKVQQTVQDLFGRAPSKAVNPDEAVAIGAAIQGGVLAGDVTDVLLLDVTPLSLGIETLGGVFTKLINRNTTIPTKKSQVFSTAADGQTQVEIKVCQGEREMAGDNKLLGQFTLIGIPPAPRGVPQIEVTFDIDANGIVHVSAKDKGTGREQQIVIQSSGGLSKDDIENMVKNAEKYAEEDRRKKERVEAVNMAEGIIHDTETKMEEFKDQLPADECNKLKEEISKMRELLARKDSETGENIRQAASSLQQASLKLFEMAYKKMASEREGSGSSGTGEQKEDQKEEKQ

B1: P19 (ssRNA)
RNA: GGGAGACAAGAAUAAACGCUCAAUGGCGAAUGCCCGCCUAAUAGGGCGUUAUGACUUGUUGAGUUCGACAGGAGGCUCACAACAGGC
modifications: 2'-F pyrimidines
B1 gave a Kd of 13.1 nM.
